Data reported in US20260042862A1 (AGENCY FOR SCIENCE TECHNOLOGY AND RESEARCH, published 2026).

Columns and labels:
[1] = biological target: T1, recombinant human GPC-3 protein (human, UniProt P51654 25-559, limits assumed); test: SPR, Biacore T200
T1 construct: also called glypican-3; recombinant GPC-3 protein
Protocol: Affinity of 24 anti-GPC-3 IgG₁ antibodies was measured via Surface Plasmon Resonance (SPR) analysis using Biacore™ T200 system and shown in Table E3 (below).

[2] = biological target: T1, recombinant human GPC-3 protein; test: binding ELISA with biotin-hGPC-3, EC50 calculated from the curves of FIG. 1A to 1C
[3] = biological target: T2, human GPC-3 on the surface of HepG2 and Hep3B cells (human, UniProt P51654 25-554); test: flow cytometry on HepG2 (GPC-3 High) cells, MFI against antibody (pM)
T2 construct: whole, on cells; Endogenous GPC-3 of human hepatoma cell lines; also called GPC-3 expressing HepG2 cells; GPC-3^High HepG2

[4] = biological target: T2, human GPC-3 on the surface of HepG2 and …; test: as above; remark: listed apart in the source
Protocol: (§1) The ability of anti-GPC-3 antibodies to specifically recognize and bind GPC-3 on the surface of cells was measured using HepG2 (GPC-3^High), Hep3B (GPC-3^Medium) and SK-Hep1 (GPC-3^Negative) cells.
(§2) Briefly, HepG2 (GPC-3^High), Hep3B (GPC-3^Medium) and SK-Hep1 (GPC-3^Negative) cells were seeded in cell suspension at 50000 per well in 96-well round-bottom plate before incubation with different concentrations of anti-GPC-3 antibodies. Binding was measured by flow cytometry using a secondary labelled antibody.

[5] = biological target: T1, recombinant human GPC-3 protein; test: binding ELISA, absorbance 450nm-570nm against Biotin-hGPC-3 (nM), batch of FIG. 1A
[6] = biological target: T1, recombinant human GPC-3 protein; test: binding ELISA, absorbance 450nm-570nm against Biotin-hGPC-3 (nM), batch of FIG. 1B
[7] = biological target: T1, recombinant human GPC-3 protein; test: binding ELISA, absorbance 450nm-570nm against Biotin-hGPC-3 (nM), batch of FIG. 1C
[8] = biological target: T1, recombinant human GPC-3 protein; test: binding ELISA with biotin-hGPC-3, EC50 calculated from the curves of FIG. 1A to 1C; footnote: * Average value from 3 batches
[9] = biological target: T2, human GPC-3 on the surface of HepG2 and …; test: flow cytometry on Hep3B (GPC-3 Medium) cells, MFI against antibody (pM)
Protocol: as §1, §2

[10] = biological target: T2, human GPC-3 on the surface of HepG2 and …; test: flow cytometry on HepG2 (GPC-3 Positive) cells, mean-APC
Protocol: (§3) The ability of these anti-GPC-3 bi-specific T cell-engaging antibodies to specifically recognize and bind to both GPC-3 and human CD3 molecules on cell surface was measured using HepG2 (GPC-3^Positive), SK-Hep1 (GPC-3^Negative), and human T cells (CD3^Positive) cells.
(§4) Briefly, HepG2 (GPC-3^Positive), SK-Hep1 (GPC-3^Negative) and human T cells (CD3^Positive) were seeded in cell suspension at 100000 per well in 96-well round-bottom plate prior to incubation with different concentrations of anti-GPC-3 bi-specific T cell-engaging antibodies. Binding was measured by flow cytometry using a secondary labelled antibody. In this assay, all 5 anti-GPC-3 bi-specific T-cell engaging antibodies bound strongly to the GPC-3 expressing cell HepG2 (FIG. 8B) as well as human T cells expressing CD3 (FIG. 8D).

[11] = biological target: T2, human GPC-3 on the surface of HepG2 and …; test: flow cytometry on HepG2 (GPC-3 Positive) cells, % positive cells
Protocol: as §3, §4

[12] = biological target: T3, human CD3 on human T cells (human, UniProt P07766 23-207); test: flow cytometry on human T cells (CD3 Positive), % positive cells
T3 construct: whole, on cells; CD3 is a complex of several chains on T cells; also called CD3^Positive human T cells
Protocol: as §3, §4

Binder | Kd [1] [nM] | koff [1] [s⁻¹] | kon [1] [M⁻¹ s⁻¹] | EC50 [2] [nM] | EC50 (read off the curve) [11] [nM] | EC50 (read off the curve) [12] [nM] | further results
anti-GPC-3 IgG1 clone 1F1 (antibody, V domains shown, Tested as IgG1; also called monoclonal antibody 1F1) VH: QVQLVQSGAEVKKPGASVKVSCKASGYTFTSYGISWVRQAPGQRLEWMGWINAGNGNTKYSQKFQGRVTITRDTSASTAYMELSSLRSEDTAVYYCATVVYWGQGTL VL: EIVLTQSPLSLPVTPGEPASISCRSSQSLLHSNGYNYLDWYLQKPGQSPQILIYLGSHRASGVPDRFSGSASGTDFTLKISRVEAEDVGVYYCMQALQTPLTFGGGTK | 13.8 | 0.00552 | 399000 | 10.6 | – | – | –
humanized GC33 IgG1 (antibody, V domains shown) VH: QVQLVESGAEVKKPGASVKVSCKASGYTFTDYEMHWVRQAPGQGLEWMGALDPKTGDTAYSQKFKGRVTITADESTSTAYMELSSLRSEDTAVYYCARFYSYTYWGQGTLVTVSS VL: DVVMTQSPLSLPVTPGEPASISCRSSQSLVHSNGNTYLHWYLQKPGQSPQLLIYKVSNRFSGVPDRFSGSGSGTDFTLKISRVEAEDVGVYYCSQNTHVPPTFGQGTKLEIK | – | – | – | – | – | – | EC50 (read off the curve) [3]: ~0.8 nM; EC50 (read off the curve) [4]: ~0.7 nM; EC50 (read off the curve) [5]: ~0.4 nM; EC50 (read off the curve) [6]: ~0.9 nM; EC50 (read off the curve) [7]: ~1 nM; EC50 [8]: 0.803 nM
anti-GPC-3 IgG1 clone 5C4 (antibody, V domains shown, Tested as IgG1; also called monoclonal antibody 5C4) VH: QVQLQESGGGLVKPGGSLRLSCAASGFTFSSYSMNWVRQAPGKGLEWVAVISYDGSNKYYADSVKGRFTISRDNSKNTLYLQMNSLRTEDTAVYYCARGAGPFTGFNWFDPWGQGTL VL: EIVLTQSPATLSVSPGERATLSCRASQSVDSYLAWYQQKPGQAPRLLIYSASTRATGIPARFSGTGSGTEFTLTISSLQSEDFAVYYCQQYKRWPTWTFGLGTR | 9.02 | 0.00161 | 179000 | 0.348 | – | – | EC50 (read off the curve) [4]: ~0.1 nM; EC50 (read off the curve) [9]: ~0.04 nM
anti-GPC-3 bi-specific T cell-engaging antibody clone 1C4 (bispecific antibody, The Fab region of one arm of the IgG is replaced by the anti-CD3 scFv; knob-in-hole and LALA mutations in the Fc; also called 1C4 bi-specific) VH: QVQLVQSGGGLVKPGRSLRLSCTASGFTFGDYAMHWVRQAPGKGLEWVAVISYDGSNKYYADSVKGRFTISRDNSKNTLYLQMNSLRAEDTAVYYCARDYGDYYRPYGMDVWGQGTT VL: DIQMTQSPSTLSASVGDRVTITCRASQSISKWLAWYQHKPGKAPKVLIYKASTLQSGVPSRFSGSGSGTEFTLTISSLQPEDFATYYCQQLNSYPLTFGGGTK scFv: DVQLVQSGAEVKKPGASVKVSCKASGYTFTRYTMHWVRQAPGQGLEWIGYINPSRGYTNYADSVKGRFTITTDKSTSTAYMELSSLRSEDTATYYCARYYDDHYCLDYWGQGTTVTVSSGEGTSTGSGGSGGSGGADDIVLTQSPATLSLSPGERATLSCRASQSVSYMNWYQQKPGKAPKRWIYDTSKVASGVPARFSGSGSGTDYSLTINSLEAEDAATYYCQQWSSNPLTFGGGTKVEIK | – | – | – | – | ~10 | ~200 | EC50 (read off the curve) [10]: ~700 nM
anti-GPC-3 bi-specific T cell-engaging antibody clone 2B5 (bispecific antibody, The Fab region of one arm of the IgG is replaced by the anti-CD3 scFv; knob-in-hole and LALA mutations in the Fc; also called 2B5 bi-specific) VH: QVQLQESGGGVVQPGRSLRLSCAASGFTFSSYAMHWVRQAPGKGLEWVAVISYDGSNKYYADSVKGRFTISRDNSKNTLYLQMNSLRAEDTAVYYCAKEGTYYYDSSGYWDYYYGMDVWGQGTT VL: DVVMTQSPLSLPVTPGEPASISCRSSQSLLDSDGYNFLDWYVQKPGQSPQRLIYLGSIRASGVPDRFSGSGSGTDFTLKISRVEADDVGVYYCMQALQTPWTFGQGTK scFv: DVQLVQSGAEVKKPGASVKVSCKASGYTFTRYTMHWVRQAPGQGLEWIGYINPSRGYTNYADSVKGRFTITTDKSTSTAYMELSSLRSEDTATYYCARYYDDHYCLDYWGQGTTVTVSSGEGTSTGSGGSGGSGGADDIVLTQSPATLSLSPGERATLSCRASQSVSYMNWYQQKPGKAPKRWIYDTSKVASGVPARFSGSGSGTDYSLTINSLEAEDAATYYCQQWSSNPLTFGGGTKVEIK | – | – | – | – | ~100 | ~400 | –
anti-GPC-3 bi-specific T cell-engaging antibody clone 4H1 (bispecific antibody, The Fab region of one arm of the IgG is replaced by the anti-CD3 scFv; knob-in-hole and LALA mutations in the Fc; also called 4H1 bi-specific) VH: EVQLVQSGGGVVQPGRSLRLSCAASGFTFSSYAMHWVRQAPGKGLEWVAVISYDGSNKYYADSVKGRFTISRDNSKNTLYLQMNSLRAEDTAVYYCARAPGLEDYWGQGTL VL: DIQMTQSPSSLSASVGDRVTITCRASQSISSYLNWYQQKPGTAPKLLIYAASSSLQSGVPSRFSGSGSGTDFALTISSLQPEDFATYYCLQDYNYPLTFGGGTK scFv: DVQLVQSGAEVKKPGASVKVSCKASGYTFTRYTMHWVRQAPGQGLEWIGYINPSRGYTNYADSVKGRFTITTDKSTSTAYMELSSLRSEDTATYYCARYYDDHYCLDYWGQGTTVTVSSGEGTSTGSGGSGGSGGADDIVLTQSPATLSLSPGERATLSCRASQSVSYMNWYQQKPGKAPKRWIYDTSKVASGVPARFSGSGSGTDYSLTINSLEAEDAATYYCQQWSSNPLTFGGGTKVEIK | – | – | – | – | ~100 | ~300 | –
anti-GPC-3 bi-specific T cell-engaging antibody clone 5C4 (bispecific antibody, The Fab region of one arm of the IgG is replaced by the anti-CD3 scFv; knob-in-hole and LALA mutations in the Fc; also called 5C4 bi-specific) VH: QVQLQESGGGLVKPGGSLRLSCAASGFTFSSYSMNWVRQAPGKGLEWVAVISYDGSNKYYADSVKGRFTISRDNSKNTLYLQMNSLRTEDTAVYYCARGAGPFTGFNWFDPWGQGTL VL: EIVLTQSPATLSVSPGERATLSCRASQSVDSYLAWYQQKPGQAPRLLIYSASTRATGIPARFSGTGSGTEFTLTISSLQSEDFAVYYCQQYKRWPTWTFGLGTR scFv: DVQLVQSGAEVKKPGASVKVSCKASGYTFTRYTMHWVRQAPGQGLEWIGYINPSRGYTNYADSVKGRFTITTDKSTSTAYMELSSLRSEDTATYYCARYYDDHYCLDYWGQGTTVTVSSGEGTSTGSGGSGGSGGADDIVLTQSPATLSLSPGERATLSCRASQSVSYMNWYQQKPGKAPKRWIYDTSKVASGVPARFSGSGSGTDYSLTINSLEAEDAATYYCQQWSSNPLTFGGGTKVEIK | – | – | – | – | ~20 | ~100 | EC50 (read off the curve) [10]: ~800 nM
anti-GPC-3 bi-specific T cell-engaging antibody clone 1D2 (bispecific antibody, The Fab region of one arm of the IgG is replaced by the anti-CD3 scFv; knob-in-hole and LALA mutations in the Fc; also called 1D2 bi-specific) VH: EVQLVQSGAEVKKPGSSVKVSCKASGGTFSSYAISWVRQAPGQGLEWMGGIIPIFGTANYAQKFQGRVTITADKSTSTAYMELSSLRSEDTAVYYCAREWQQQLVPLGYMDVWGKGTT VL: ETTLTQSPGTLSLSPGERATLSCRASHSVSSNFLAWYQQKPGQAPRLLIYAASSRTTGVPDRFSGSGSGTDFTLTISRLEPEDSAVYYCQQYGYSPLYTFGQGTK scFv: DVQLVQSGAEVKKPGASVKVSCKASGYTFTRYTMHWVRQAPGQGLEWIGYINPSRGYTNYADSVKGRFTITTDKSTSTAYMELSSLRSEDTATYYCARYYDDHYCLDYWGQGTTVTVSSGEGTSTGSGGSGGSGGADDIVLTQSPATLSLSPGERATLSCRASQSVSYMNWYQQKPGKAPKRWIYDTSKVASGVPARFSGSGSGTDYSLTINSLEAEDAATYYCQQWSSNPLTFGGGTKVEIK | – | – | – | – | ~70 | ~300 | –
anti-GPC-3 IgG1 clone 1H1 (antibody, V domains shown, Tested as IgG1; also called monoclonal antibody 1H1) VH: QVQLQESGAGLLRPSETLSLTCAVYGGSFSGYYWSWIRQPPGKGLEWLGEISHSGSTNYNPSLKSRVTISVDTSKNQFSLKLSSVTAADAAVYYCARWVWSGYYNGEGYFDLWGRGTL VL: ETTLTQSPGTLSLSPGERATLSCRASQSVSSSYLAWYQQKPGQAPRLLIYGASSRATGIPDRFSGRGSGTDFTLTITRLEPEDFAVYYCQYYGSSPRTFGQGTK | 33.9 | 0.00596 | 176000 | 5.42 | – | – | –
